The values that follow come from US20150374794A1 (Novo Nordisk, published 2015).

Numbered stars: 1 amine (or outer) side, 2 acyl side, 3 side chain; on linkers, the order of the positions; unused ones are H or OH. Square brackets hold non-standard residues; d marks the D form. Side chains are listed from the residue outwards. Ends that are not written are not given here. * marks the point of attachment. C18 diacid = O=C(O)CCCCCCCCCCCCCCCCC(=O)*; γGlu = O=C(O)[C@H](CCC(=O)[*:2])N[*:1]; Ac4c = NC1(C(=O)O)CCC1; AEEA = NCCOCCOCC(=O)O; Aib = CC(C)(N)C(=O)O

The target in test [1] is T1, human GLP-1 receptor (human, UniProt P43220 24-463). Kind of test: cell-based or functional assay.
Test [2] deals with T2, human glucagon receptor (human, UniProt P47871 26-477). The test can be described thus: cell-based or functional assay.
Test [3] addresses T1, human GLP-1 receptor. The test can be described thus: displacement of 125I-GLP-1(7-36)NH2, membranes with human GLP-1R, SPA. Here is the method:
The receptor binding of each compound to the human GLP-1 receptor was measured in a displacement binding assay. […] Each derivative was added in a series of concentrations to isolated membranes containing the human GLP-1 receptor and displacement of the labelled ligand was monitored. The receptor binding was reported as the concentration at which half of the labelled ligand was displaced from the receptor, the IC₅₀ value.
For orientation: In a radioligand displacement assay an active substance lowers the binding of a labelled ligand.

The target in test [4] is T2, human glucagon receptor. The test can be described thus: displacement of 125I-glucagon, membranes with human glucagon receptor, SPA. How it is done:
The receptor binding of each compound to the human glucagon receptor was measured in a displacement binding assay. […] Each derivative was added in a series of concentrations to isolated membranes containing the human glucagon receptor and displacement of the labelled ligand is monitored. The receptor binding was reported as the concentration at which half of the labelled ligand is displaced from the receptor, the IC₅₀ value.

T2 sequence (P47871 26-477): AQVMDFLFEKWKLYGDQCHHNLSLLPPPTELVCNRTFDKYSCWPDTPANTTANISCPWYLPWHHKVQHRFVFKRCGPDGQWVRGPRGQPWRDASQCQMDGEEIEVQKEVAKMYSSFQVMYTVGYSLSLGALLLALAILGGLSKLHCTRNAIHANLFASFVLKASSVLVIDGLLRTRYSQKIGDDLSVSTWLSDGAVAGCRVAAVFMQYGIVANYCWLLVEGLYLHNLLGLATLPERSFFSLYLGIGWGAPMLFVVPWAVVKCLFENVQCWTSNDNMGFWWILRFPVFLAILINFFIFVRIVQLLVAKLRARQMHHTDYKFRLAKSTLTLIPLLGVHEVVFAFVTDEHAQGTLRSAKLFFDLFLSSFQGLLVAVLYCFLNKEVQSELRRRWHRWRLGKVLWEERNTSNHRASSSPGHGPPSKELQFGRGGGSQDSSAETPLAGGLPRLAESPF

B1: N^ε28-[(4S)-4-carboxy-4-[[(4S)-4-carboxy-4-[[2-[2-[2-[[2-[2-[2-[[(4S)-4-carboxy-4-(17-carboxyheptadecanoylamino)butanoyl]amino]ethoxy]ethoxy]acetyl]amino]ethoxy … (peptide)
peptide: H[Aib]QGTFTSDLSKYLDARRAREFVQWLLK([γGlu-γGlu-AEEA-AEEA-γGlu-C18 diacid])T-NH2
modifications: N-terminus assumed
SMILES: CC(C)C[C@H](NC(=O)[C@H](Cc1ccc(O)cc1)NC(=O)[C@H](CCCCN)NC(=O)[C@H](CO)NC(=O)[C@H](CC(C)C)NC(=O)[C@H](CC(=O)O)NC(=O)[C@H](CO)NC(=O)[C@@H](NC(=O)[C@H](Cc1ccccc1)NC(=O)[C@@H](NC(=O)CNC(=O)[C@H](CCC(N)=O)NC(=O)C(C)(C)NC(=O)[C@@H](N)Cc1c[nH]cn1)[C@@H](C)O)[C@@H](C)O)C(=O)N[C@@H](CC(=O)O)C(=O)N[C@@H](C)C(=O)N[C@@H](CCCNC(=N)N)C(=O)N[C@@H](CCCNC(=N)N)C(=O)N[C@@H](C)C(=O)N[C@@H](CCCNC(=N)N)C(=O)N[C@@H](CCC(=O)O)C(=O)N[C@@H](Cc1ccccc1)C(=O)N[C@H](C(=O)N[C@@H](CCC(N)=O)C(=O)N[C@@H](Cc1c[nH]c2ccccc12)C(=O)N[C@@H](CC(C)C)C(=O)N[C@@H](CC(C)C)C(=O)N[C@@H](CCCCNC(=O)CC[C@H](NC(=O)CC[C@H](NC(=O)COCCOCCNC(=O)COCCOCCNC(=O)CC[C@H](NC(=O)CCCCCCCCCCCCCCCCC(=O)O)C(=O)O)C(=O)O)C(=O)O)C(=O)N[C@H](C(N)=O)[C@@H](C)O)C(C)C
For orientation: IC50 means the concentration that gives 50% inhibition. The low end stands for greater potency, the high end for weaker potency. Take B1: in the test with human GLP-1 receptor [1], the “EC50 GLP-1R, CRE luciferase reporter gene assay in BHK cells” value (“EC50 GLP-1R” for short) was 5 pM. For the same molecule, in the test with human glucagon receptor [2], the “EC50 GlucR, CRE luciferase reporter gene assay in BHK cells” value (“EC50 GlucR” below) is 2 pM. In addition, the IC50 was found to be 300 pM in the test with human GLP-1 receptor [3] and 5600 pM with human glucagon receptor [4].

B2: N^ε28-[(4S)-4-carboxy-4-[[(4S)-4-carboxy-4-[[2-[2-[2-[[2-[2-[2-[[(4S)-4-carboxy-4-[[(4S)-4-carboxy-4-(17-carboxyheptadecanoylamino)butanoyl]amino]butanoyl]amino … (peptide)
peptide: H[Ac4c]QGTFTSDLSKYLDLRRARDFVQWLLK([γGlu-γGlu-AEEA-AEEA-γGlu-γGlu-C18 diacid])T-NH2
modifications: N-terminus assumed
SMILES: CC(C)C[C@H](NC(=O)[C@H](CC(=O)O)NC(=O)[C@H](CC(C)C)NC(=O)[C@H](Cc1ccc(O)cc1)NC(=O)[C@H](CCCCN)NC(=O)[C@H](CO)NC(=O)[C@H](CC(C)C)NC(=O)[C@H](CC(=O)O)NC(=O)[C@H](CO)NC(=O)[C@@H](NC(=O)[C@H](Cc1ccccc1)NC(=O)[C@@H](NC(=O)CNC(=O)[C@H](CCC(N)=O)NC(=O)C1(NC(=O)[C@@H](N)Cc2c[nH]cn2)CCC1)[C@@H](C)O)[C@@H](C)O)C(=O)N[C@@H](CCCNC(=N)N)C(=O)N[C@@H](CCCNC(=N)N)C(=O)N[C@@H](C)C(=O)N[C@@H](CCCNC(=N)N)C(=O)N[C@@H](CC(=O)O)C(=O)N[C@@H](Cc1ccccc1)C(=O)N[C@H](C(=O)N[C@@H](CCC(N)=O)C(=O)N[C@@H](Cc1c[nH]c2ccccc12)C(=O)N[C@@H](CC(C)C)C(=O)N[C@@H](CC(C)C)C(=O)N[C@@H](CCCCNC(=O)CC[C@H](NC(=O)CC[C@H](NC(=O)COCCOCCNC(=O)COCCOCCNC(=O)CC[C@H](NC(=O)CC[C@H](NC(=O)CCCCCCCCCCCCCCCCC(=O)O)C(=O)O)C(=O)O)C(=O)O)C(=O)O)C(=O)N[C@H](C(N)=O)[C@@H](C)O)C(C)C
For the molecule B2, the “EC50 GLP-1R” value with human GLP-1 receptor [1] is 18 pM. Also, in the test with human glucagon receptor [2], the “EC50 GlucR” value is 6 pM. The IC50 with human GLP-1 receptor [3] was 400 pM; with human glucagon receptor [4] it was 4500 pM.

B3: N^ε28-[(4S)-4-carboxy-4-[[(4S)-4-carboxy-4-[[2-[2-[2-[[2-[2-[2-[[(4S)-4-carboxy-4-[[(4S)-4-carboxy-4-(17-carboxyheptadecanoylamino)butanoyl]amino]butanoyl]amino … (peptide)
peptide: H[Ac4c]QGTFTSDLSRYLESRRAREFVQWLLK([γGlu-γGlu-AEEA-AEEA-γGlu-γGlu-C18 diacid])T-NH2
modifications: N-terminus assumed
SMILES: CC(C)C[C@H](NC(=O)[C@H](Cc1ccc(O)cc1)NC(=O)[C@H](CCCNC(=N)N)NC(=O)[C@H](CO)NC(=O)[C@H](CC(C)C)NC(=O)[C@H](CC(=O)O)NC(=O)[C@H](CO)NC(=O)[C@@H](NC(=O)[C@H](Cc1ccccc1)NC(=O)[C@@H](NC(=O)CNC(=O)[C@H](CCC(N)=O)NC(=O)C1(NC(=O)[C@@H](N)Cc2c[nH]cn2)CCC1)[C@@H](C)O)[C@@H](C)O)C(=O)N[C@@H](CCC(=O)O)C(=O)N[C@@H](CO)C(=O)N[C@@H](CCCNC(=N)N)C(=O)N[C@@H](CCCNC(=N)N)C(=O)N[C@@H](C)C(=O)N[C@@H](CCCNC(=N)N)C(=O)N[C@@H](CCC(=O)O)C(=O)N[C@@H](Cc1ccccc1)C(=O)N[C@H](C(=O)N[C@@H](CCC(N)=O)C(=O)N[C@@H](Cc1c[nH]c2ccccc12)C(=O)N[C@@H](CC(C)C)C(=O)N[C@@H](CC(C)C)C(=O)N[C@@H](CCCCNC(=O)CC[C@H](NC(=O)CC[C@H](NC(=O)COCCOCCNC(=O)COCCOCCNC(=O)CC[C@H](NC(=O)CC[C@H](NC(=O)CCCCCCCCCCCCCCCCC(=O)O)C(=O)O)C(=O)O)C(=O)O)C(=O)O)C(=O)N[C@H](C(N)=O)[C@@H](C)O)C(C)C
Consider B3, for which, in the test with human GLP-1 receptor [1], the “EC50 GLP-1R” value came out at 4 pM. Further, the “EC50 GlucR” value with human glucagon receptor [2] was 17 pM. In addition, the IC50 with human GLP-1 receptor [3] was 200 pM; in the test with human glucagon receptor [4] it was 1400 pM.

B4: N^ε28-[(4S)-4-carboxy-4-[[(4S)-4-carboxy-4-[[2-[2-[2-[[2-[2-[2-[[(4S)-4-carboxy-4-[[(4S)-4-carboxy-4-(17-carboxyheptadecanoylamino)butanoyl]amino]butanoyl]amino … (peptide)
peptide: H[Ac4c]QGTFTSDLSKYLDLRRAREFVQWLLK([γGlu-γGlu-AEEA-AEEA-γGlu-γGlu-C18 diacid])T-NH2
modifications: N-terminus assumed
SMILES: CC(C)C[C@H](NC(=O)[C@H](CC(=O)O)NC(=O)[C@H](CC(C)C)NC(=O)[C@H](Cc1ccc(O)cc1)NC(=O)[C@H](CCCCN)NC(=O)[C@H](CO)NC(=O)[C@H](CC(C)C)NC(=O)[C@H](CC(=O)O)NC(=O)[C@H](CO)NC(=O)[C@@H](NC(=O)[C@H](Cc1ccccc1)NC(=O)[C@@H](NC(=O)CNC(=O)[C@H](CCC(N)=O)NC(=O)C1(NC(=O)[C@@H](N)Cc2c[nH]cn2)CCC1)[C@@H](C)O)[C@@H](C)O)C(=O)N[C@@H](CCCNC(=N)N)C(=O)N[C@@H](CCCNC(=N)N)C(=O)N[C@@H](C)C(=O)N[C@@H](CCCNC(=N)N)C(=O)N[C@@H](CCC(=O)O)C(=O)N[C@@H](Cc1ccccc1)C(=O)N[C@H](C(=O)N[C@@H](CCC(N)=O)C(=O)N[C@@H](Cc1c[nH]c2ccccc12)C(=O)N[C@@H](CC(C)C)C(=O)N[C@@H](CC(C)C)C(=O)N[C@@H](CCCCNC(=O)CC[C@H](NC(=O)CC[C@H](NC(=O)COCCOCCNC(=O)COCCOCCNC(=O)CC[C@H](NC(=O)CC[C@H](NC(=O)CCCCCCCCCCCCCCCCC(=O)O)C(=O)O)C(=O)O)C(=O)O)C(=O)O)C(=O)N[C@H](C(N)=O)[C@@H](C)O)C(C)C
Consider B4, for which the “EC50 GLP-1R” value in the test with human GLP-1 receptor [1] came to 17 pM. The “EC50 GlucR” value with human glucagon receptor [2] is 4 pM. Also, the IC50 was found to be 400 pM in the test with human GLP-1 receptor [3] and 1700 pM with human glucagon receptor [4].

B5: N^ε28-[(4S)-4-carboxy-4-[[(4S)-4-carboxy-4-[[2-[2-[2-[[2-[2-[2-[[(4S)-4-carboxy-4-[[(4S)-4-carboxy-4-(17-carboxyheptadecanoylamino)butanoyl]amino]butanoyl]amino … (peptide)
peptide: H[Ac4c]QGTFTSDLSRYLDLRRARDFVQWLLK([γGlu-γGlu-AEEA-AEEA-γGlu-γGlu-C18 diacid])T-NH2
modifications: N-terminus assumed
SMILES: CC(C)C[C@H](NC(=O)[C@H](CC(=O)O)NC(=O)[C@H](CC(C)C)NC(=O)[C@H](Cc1ccc(O)cc1)NC(=O)[C@H](CCCNC(=N)N)NC(=O)[C@H](CO)NC(=O)[C@H](CC(C)C)NC(=O)[C@H](CC(=O)O)NC(=O)[C@H](CO)NC(=O)[C@@H](NC(=O)[C@H](Cc1ccccc1)NC(=O)[C@@H](NC(=O)CNC(=O)[C@H](CCC(N)=O)NC(=O)C1(NC(=O)[C@@H](N)Cc2c[nH]cn2)CCC1)[C@@H](C)O)[C@@H](C)O)C(=O)N[C@@H](CCCNC(=N)N)C(=O)N[C@@H](CCCNC(=N)N)C(=O)N[C@@H](C)C(=O)N[C@@H](CCCNC(=N)N)C(=O)N[C@@H](CC(=O)O)C(=O)N[C@@H](Cc1ccccc1)C(=O)N[C@H](C(=O)N[C@@H](CCC(N)=O)C(=O)N[C@@H](Cc1c[nH]c2ccccc12)C(=O)N[C@@H](CC(C)C)C(=O)N[C@@H](CC(C)C)C(=O)N[C@@H](CCCCNC(=O)CC[C@H](NC(=O)CC[C@H](NC(=O)COCCOCCNC(=O)COCCOCCNC(=O)CC[C@H](NC(=O)CC[C@H](NC(=O)CCCCCCCCCCCCCCCCC(=O)O)C(=O)O)C(=O)O)C(=O)O)C(=O)O)C(=O)N[C@H](C(N)=O)[C@@H](C)O)C(C)C
Regarding B5, the “EC50 GLP-1R” value in the test with human GLP-1 receptor [1] worked out at 21 pM. The “EC50 GlucR” value in the test with human glucagon receptor [2] is 16 pM. Further, the values for the IC50 with human GLP-1 receptor [3] and with human glucagon receptor [4] were 1100 pM and 8500 pM, respectively.

B6: N^ε28-[(4S)-4-carboxy-4-[[(4S)-4-carboxy-4-[[2-[2-[2-[[2-[2-[2-[[(4S)-4-carboxy-4-[[(4S)-4-carboxy-4-(17-carboxyheptadecanoylamino)butanoyl]amino]butanoyl]amino … (peptide)
peptide: H[Ac4c]QGTFTSDLSKYLDLKRAREFVQWLLK([γGlu-γGlu-AEEA-AEEA-γGlu-γGlu-C18 diacid])T-NH2
modifications: N-terminus assumed
SMILES: CC(C)C[C@H](NC(=O)[C@H](CC(=O)O)NC(=O)[C@H](CC(C)C)NC(=O)[C@H](Cc1ccc(O)cc1)NC(=O)[C@H](CCCCN)NC(=O)[C@H](CO)NC(=O)[C@H](CC(C)C)NC(=O)[C@H](CC(=O)O)NC(=O)[C@H](CO)NC(=O)[C@@H](NC(=O)[C@H](Cc1ccccc1)NC(=O)[C@@H](NC(=O)CNC(=O)[C@H](CCC(N)=O)NC(=O)C1(NC(=O)[C@@H](N)Cc2c[nH]cn2)CCC1)[C@@H](C)O)[C@@H](C)O)C(=O)N[C@@H](CCCCN)C(=O)N[C@@H](CCCNC(=N)N)C(=O)N[C@@H](C)C(=O)N[C@@H](CCCNC(=N)N)C(=O)N[C@@H](CCC(=O)O)C(=O)N[C@@H](Cc1ccccc1)C(=O)N[C@H](C(=O)N[C@@H](CCC(N)=O)C(=O)N[C@@H](Cc1c[nH]c2ccccc12)C(=O)N[C@@H](CC(C)C)C(=O)N[C@@H](CC(C)C)C(=O)N[C@@H](CCCCNC(=O)CC[C@H](NC(=O)CC[C@H](NC(=O)COCCOCCNC(=O)COCCOCCNC(=O)CC[C@H](NC(=O)CC[C@H](NC(=O)CCCCCCCCCCCCCCCCC(=O)O)C(=O)O)C(=O)O)C(=O)O)C(=O)O)C(=O)N[C@H](C(N)=O)[C@@H](C)O)C(C)C
Regarding B6, the “EC50 GLP-1R” value with human GLP-1 receptor [1] was determined as 17 pM. In the test with human glucagon receptor [2], the “EC50 GlucR” value was 5 pM. In addition, the IC50 is 200 pM with human GLP-1 receptor [3] and 1500 pM in the test with human glucagon receptor [4].
